Laboratory results from patent US20240067758A1 (UCB, published 2024).

What was measured:
Human IL22 [1] = molecular target: T1, Human IL22 (human, UniProt Q9GZX6 34-179); assay: SPR; sample stressed 2 weeks at 37 °C, pH 8.0 (Asn95 of light chain CDR3 >40% deamidated)
T1 construct: IL22 of the Biacore and cell assays
T1 sequence: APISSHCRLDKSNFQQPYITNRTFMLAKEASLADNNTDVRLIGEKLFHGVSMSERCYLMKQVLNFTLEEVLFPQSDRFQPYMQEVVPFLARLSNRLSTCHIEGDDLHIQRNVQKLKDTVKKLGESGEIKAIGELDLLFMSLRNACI

Human IL13 [2] = molecular target: T2, Human IL13 (human, UniProt P35225 35-146, limits assumed); assay: SPR Biacore T200; TrYbe captured on anti-human F(ab')2, analyte 10-0.3125 nM; mean KD
Procedure: (§1) BIA (Biomolecular Interaction Analysis) was performed using T200 (GE Healthcare). Affinipure IgG-F(ab′)₂ Fragment goat anti-human IgG, F(ab′)₂ fragment specific (Jackson ImmunoResearch) was immobilized on a CM5 Sensor Chip via amine coupling chemistry to a capture level of ˜5000 response units (RUs). HBS-EP+buffer (10 mM HEPES pH 7.4, 0.15 M NaCl, 3 mM EDTA, 0.05% Surfactant P20, GE Healthcare) was used as the running buffer with a flow rate of 10 μL/min.
(§2) The surface was generated by 2×10 μL injections of 50 mM HCl, interspersed by a 10 μL injection of 5 mM NaOH at flowrate of 10 μL/min. Background subtraction binding curves were analyzed using the T200 evaluation software (version 3.0) following standard procedures. Kinetic parameters were determined from the fitting algorithm.

Cynomolgus IL22 = molecular target: T3, Cynomolgus IL22 (cynomolgus, UniProt G7PHZ7 34-179); assay: as above
T3 construct: also called Cyno IL22; Cyno IL-22
T3 sequence: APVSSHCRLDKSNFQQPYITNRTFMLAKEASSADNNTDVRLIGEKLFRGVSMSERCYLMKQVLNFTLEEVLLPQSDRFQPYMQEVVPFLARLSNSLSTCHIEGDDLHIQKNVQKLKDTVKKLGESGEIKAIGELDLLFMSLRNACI
Procedure: as §1, §2

Mouse IL22 = molecular target: T4, Mouse IL22 (mouse, UniProt Q9JJY9 34-179); assay: as above
T4 sequence (looked up): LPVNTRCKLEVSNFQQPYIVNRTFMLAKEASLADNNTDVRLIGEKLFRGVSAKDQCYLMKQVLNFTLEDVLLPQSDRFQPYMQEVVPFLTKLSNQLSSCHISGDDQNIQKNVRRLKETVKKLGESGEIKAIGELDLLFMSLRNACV
Procedure: as §1, §2

Cynomolgus IL13 = molecular target: T5, Cynomolgus IL13 (cynomolgus, UniProt Q0PW92 21-132); assay: as above
T5 construct: also called Cyno IL-13
Procedure: as §1, §2

Human IL22 [3] = molecular target: T1, Human IL22; assay: as above
Procedure: as §1, §2

Human IL13 [4] = molecular target: T2, Human IL13; assay: cell-based or functional assay
Human IL22 [5] = molecular target: T1, Human IL22; assay: SPR; non-stressed T0 sample of the deamidation stress study
Human IL22 [6] = molecular target: T1, Human IL22; assay: cell-based or functional assay
Mouse Albumin = Mouse Albumin (mouse, UniProt P07724 25-608); assay: SPR Biacore T200; TrYbe captured on anti-human F(ab')2, analyte 100-3 nM; mean KD
Procedure: as §1, §2

Cynomolgus Albumin = molecular target: T6, Cynomolgus Albumin (cynomolgus, UniProt A2V9Z4 25-608); assay: as above
T6 construct: also called Cyno Albumin
Procedure: as §1, §2

Human Albumin = molecular target: T7, Human Albumin (human, UniProt P02768 25-609); assay: as above
T7 construct: also called human serum albumin; HSA
Procedure: as §1, §2

Mouse IL13 = molecular target: T8, Mouse IL13 (mouse, UniProt P20109 26-131, limits assumed); assay: SPR Biacore T200; TrYbe captured on anti-human F(ab')2, mouse IL13 titrated
T8 sequence (looked up): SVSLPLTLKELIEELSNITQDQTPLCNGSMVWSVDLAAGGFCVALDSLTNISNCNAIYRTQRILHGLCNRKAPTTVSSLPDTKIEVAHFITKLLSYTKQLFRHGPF

B1: IL13/IL22 TrYbe (other)
heavy: EVQLVESGGGLVQPGGSLRLSCAVSGFSLSSYAMIWVRQAPGKGLEWIGIIDIEGSTYYASWAKGRFTISRDNSKNTVYLQMNSLRAEDTAVYYCARDRFVGVDIFDPWGQGTLVTVSSASTKGPSVFPLAPSSKSTSGGTAALGCLVKDYFPEPVTVSWNSGALTSGVHTFPAVLQSSGLYSLSSVVTVPSSSLGTQTYICNVNHKPSNTKVDKKVEPKSCSGGGGSGGGGSEVQLLESGGGLVQPGGSLRLSCAVSGIDLSNYAINWVRQAPGKCLEWIGIIWASGTTFYATWAKGRFTISRDNSKNTVYLQMNSLRAEDTAVYYCARTVPGYSTAPYFDLWGQGTLVTVSSGGGGSGGGGSGGGGSGGGGSDIQMTQSPSSVSASVGDRVTITCQSSPSVWSNFLSWYQQKPGKAPKLLIYEASKLTSGVPSRFSGSGSGTDFTLTISSLQPEDFATYYCGGGYSSISDTTFGCGTKVEIKRT
light: AVQLTQSPSSLSASVGDRVTITCQASEDIYTNLAWYQQKPGKAPKLLIYWASTLASGVPSRFSGSGSGTDFTLTISSLQPEDFATYYCQASVYGNAADSRYTFGGGTKVEIKRTVAAPSVFIFPPSDEQLKSGTASVVCLLNNFYPREAKVQWKVDNALQSGNSQESVTEQDSKDSTYSLSSTLTLSKADYEKHKVYACEVTHQGLSSPVTKSFNRGECSGGGGSGGGGSEVQLVQSGAEVKKPGSSVKVSCKASGYSFTSYYIHWVRQAPGQCLEWMGRIGPGSGDINYNEKFKGRATFTVDKSTSTAYMELSSLRSEDTAVYYCARFHYDGADWGQGTLVTVSSGGGGSGGGGSGGGGSGGGGSDIQMTQSPSSLSASVGDRVTITCKASQNINENLDWYQQKPGKAPKLLIYYTDILQTGIPSRFSGSGSGTDYTLTISSLQPEDFATYYCYQYYSGYTFGCGTKLEIKRT
notes: also called batches PB8056 and PB7916
With B1 the Kd (Human IL22 [1]) was 0.03 nM, the koff (Human IL22 [1]) was 3.2e-05 s⁻¹ and the kon (Human IL22 [1]) was 1.1e+06 M⁻¹ s⁻¹. It also gave a Kd (Human IL13 [2]) of under 0.1 nM, a Kd (Cynomolgus IL22) of under 0.1 nM and a Kd (Mouse IL22) of 14 to 25 nM. The Kd (Cynomolgus IL13) was under 0.25 nM, the Kd (Human IL22 [3]) was under 0.1 nM and the “IC50 (read off the curve), inhibition of eotaxin-3 secretion, primary human keratinocytes stimulated with IL-13 and IL-22 at 100 ng/ml” value (Human IL13 [4]) was about 6 nM. For the same binder, the Kd (Human IL22 [5]) was 0.026 nM, the koff (Human IL22 [5]) was 3.1e-05 s⁻¹ and the kon (Human IL22 [5]) was 1.2e+06 M⁻¹ s⁻¹. The “IC50 (M) Geomean; IL22-induced IL-10 release, COLO205 cells; batch PB7916 (N = 4)” value (Human IL22 [6]) was 3.4e-11 M, the “IC50 (M) Geomean; IL22-induced IL-10 release, COLO205 cells; batch PB8056 (N = 4)” value (Human IL22 [6]) was 3.66e-11 M and the Kd (Mouse Albumin) was 5 to 6 nM. For the same binder, the Kd (Cynomolgus Albumin) was 1 to 3 nM, the Kd (Human Albumin) was 1 to 3 nM and the binding result (Mouse IL13) was “no binding (tested: 10 nM to 0.3125 nM)”.
